The values that follow come from patent publication US20100216690A1, “Pegylated Single-Chain Insulin” (Novo Nordisk A/S, priority 2005, published 2010).

One assay concerns the target T1, human insulin receptor (IR) (Homo sapiens, UniProt P06213). The experiment in a line: displacement of 125I-human insulin from human insulin receptor; affinity relative to human insulin.
Conditions: not given
Target sequence in this assay (P06213 other isoform, or with tags, fused parts or gaps limits assumed, form in doubt): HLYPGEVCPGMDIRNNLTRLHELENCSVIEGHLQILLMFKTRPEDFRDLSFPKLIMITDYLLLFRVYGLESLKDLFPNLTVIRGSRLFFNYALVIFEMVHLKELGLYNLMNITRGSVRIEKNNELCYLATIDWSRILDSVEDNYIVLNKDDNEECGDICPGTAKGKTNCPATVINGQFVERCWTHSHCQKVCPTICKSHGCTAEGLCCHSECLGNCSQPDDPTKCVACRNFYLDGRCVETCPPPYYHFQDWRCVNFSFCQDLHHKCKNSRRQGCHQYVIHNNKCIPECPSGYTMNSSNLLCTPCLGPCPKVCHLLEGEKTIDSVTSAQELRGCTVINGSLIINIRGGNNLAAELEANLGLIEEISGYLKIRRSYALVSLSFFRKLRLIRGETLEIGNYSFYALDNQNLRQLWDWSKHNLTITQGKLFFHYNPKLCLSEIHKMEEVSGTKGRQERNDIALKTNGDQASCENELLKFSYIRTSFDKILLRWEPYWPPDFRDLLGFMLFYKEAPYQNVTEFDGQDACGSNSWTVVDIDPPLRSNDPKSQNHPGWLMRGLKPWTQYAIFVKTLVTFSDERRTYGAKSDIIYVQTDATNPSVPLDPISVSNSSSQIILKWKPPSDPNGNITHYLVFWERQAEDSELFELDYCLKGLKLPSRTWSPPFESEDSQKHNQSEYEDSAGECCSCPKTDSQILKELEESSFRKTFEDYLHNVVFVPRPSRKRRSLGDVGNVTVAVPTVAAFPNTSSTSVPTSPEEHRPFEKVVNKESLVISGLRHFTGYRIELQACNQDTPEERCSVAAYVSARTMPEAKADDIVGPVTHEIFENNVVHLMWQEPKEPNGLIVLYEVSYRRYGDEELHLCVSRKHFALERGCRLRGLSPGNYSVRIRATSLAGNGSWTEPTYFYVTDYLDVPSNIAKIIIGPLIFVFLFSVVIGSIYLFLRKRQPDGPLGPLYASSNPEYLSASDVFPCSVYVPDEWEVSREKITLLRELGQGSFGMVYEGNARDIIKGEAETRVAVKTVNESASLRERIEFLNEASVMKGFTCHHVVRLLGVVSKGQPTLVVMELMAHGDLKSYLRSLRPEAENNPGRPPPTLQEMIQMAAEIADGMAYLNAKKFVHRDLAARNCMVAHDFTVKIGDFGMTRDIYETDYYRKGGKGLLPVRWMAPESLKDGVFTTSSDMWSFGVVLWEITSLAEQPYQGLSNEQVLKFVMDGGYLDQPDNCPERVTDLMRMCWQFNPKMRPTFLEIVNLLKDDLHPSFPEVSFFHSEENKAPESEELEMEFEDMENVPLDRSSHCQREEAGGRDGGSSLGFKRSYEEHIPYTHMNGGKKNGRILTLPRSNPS
For “B(1-29)-B3K(N^ε-3-(mPEG2000-yl)propionyl)-B29A-VGLSSGQ-A(1-21)-A18Q Human Insulin (from UniProt P01308 25-53; P01308 90-110) (ligand)”, the IR binding in percent of human insulin amounted to 4.5%. On the same count and under the same terms, then “B(1-29)-B29K(N^ε-3-(mPEG2000-yl-propionyl)-VGLSSGQ-A(1-21)-A18Q Human Insulin (from UniProt P01308 25-53; P01308 90-110) (ligand)”, with 5.3%; and “B(1-29)-B22K(N^ε-3-(mPEG2000-yl)propionyl)-B29A-A18Q-VGLSSGQ-A(1-21) Human Insulin (from UniProt P01308 25-53; P01308 90-110) (ligand)”, with 19.7%.

Substance “B(1-29)-B1(N^α-3-(mPEG2000-yl)propionyl)-B29A-VGLSSGQ-A(1-21)-A18Q Human Insulin (from UniProt P01308 25-53; P01308 90-110) (ligand)” gave an IR binding in percent of human insulin of 8.1%. On the same count and under the same terms, then “B(1-29)-B29A-VGLSSGQ-A(1-21)-A8K(N^ε-3-(mPEG2000-yl)propionyl)-A18Q Human Insulin (from UniProt P01308 25-53; P01308 90-110) (ligand)”, with 4.6%. As to “B(1-29)-B29A-VGLSSGQ-A(1-22)-A18Q-A22K(N^ε-3-(mPEG2000-yl)propionyl) Human Insulin (from UniProt P01308 25-53; P01308 90-110) (ligand)”, the IR binding in percent of human insulin stood at 12%. The same measure, in the same setting: the figure for “B(1-29)-B3Q-B29R-TGLGK(N^ε-3-(mPEG2000-yl)propionyl)GQ-A(1-21)-A18Q-A21G Human Insulin (from UniProt P01308 25-53; P01308 90-110) (ligand)” is 6.8%; for “B(1-29)-B29A-VK(N^ε-3-(mPEG2000-yl)propionyl)LSSGQ-A(1-21)-A18Q Human Insulin (from UniProt P01308 25-53; P01308 90-110) (ligand)” it is 3.2%.

A further assay deals with T1, human insulin receptor (IR). The experiment in a line: Binding affinity to the human insulin receptor relative to human insulin (SPA antibody capture assay). To be noted: binding affinity to the human insulin receptor relative to that of human insulin. As to the method:
The PEGylated single-chain insulins were tested for biological insulin activity as measured by binding affinity to the human insulin receptor (IR) relative to that of human insulin as described below.
Insulin receptor binding of the PEGylated single-chain insulins of the invention.
The affinity of the PEGylated, single-chain insulins the invention for the human insulin receptor is determined by a SPA assay (Scintillation Proximity Assay) microtiterplate antibody capture assay. SPA-PVT antibody-binding beads, anti-mouse reagent (Amersham Biosciences, Cat No. PRNQ0017) are mixed with 25 ml of binding buffer (100 mM HEPES pH 7.8; 100 mM sodium chloride, 10 mM MgSO4, 0.025% Tween-20). Reagent mix for a single Packard Optiplate (Packard No. 6005190) is composed of 2.4 μl of a 1:5000 diluted purified recombinant human insulin receptor—exon 11, an amount of a stock solution of A14 Tyr[125I]-human insulin corresponding to 5000 cpm per 100 μl of reagent mix, 12 μl of a 1:1000 dilution of F12 antibody, 3 ml of SPA-beads and binding buffer to a total of 12 ml. A total of 100 μl is then added and a dilution series is made from appropriate samples. To the dilution series is then added 100 μl of reagent mix and the samples were incubated for 16 hours while gently shaken. The phases are then separated by centrifugation for 1 min and the plates counted in a Topcounter. The binding data are fitted using the nonlinear regression algorithm in the GraphPad Prism 2.01 (GraphPad Software, San Diego, Calif.).
Target sequence in this assay (P06213 28-746 isoform P06213-2 limits assumed): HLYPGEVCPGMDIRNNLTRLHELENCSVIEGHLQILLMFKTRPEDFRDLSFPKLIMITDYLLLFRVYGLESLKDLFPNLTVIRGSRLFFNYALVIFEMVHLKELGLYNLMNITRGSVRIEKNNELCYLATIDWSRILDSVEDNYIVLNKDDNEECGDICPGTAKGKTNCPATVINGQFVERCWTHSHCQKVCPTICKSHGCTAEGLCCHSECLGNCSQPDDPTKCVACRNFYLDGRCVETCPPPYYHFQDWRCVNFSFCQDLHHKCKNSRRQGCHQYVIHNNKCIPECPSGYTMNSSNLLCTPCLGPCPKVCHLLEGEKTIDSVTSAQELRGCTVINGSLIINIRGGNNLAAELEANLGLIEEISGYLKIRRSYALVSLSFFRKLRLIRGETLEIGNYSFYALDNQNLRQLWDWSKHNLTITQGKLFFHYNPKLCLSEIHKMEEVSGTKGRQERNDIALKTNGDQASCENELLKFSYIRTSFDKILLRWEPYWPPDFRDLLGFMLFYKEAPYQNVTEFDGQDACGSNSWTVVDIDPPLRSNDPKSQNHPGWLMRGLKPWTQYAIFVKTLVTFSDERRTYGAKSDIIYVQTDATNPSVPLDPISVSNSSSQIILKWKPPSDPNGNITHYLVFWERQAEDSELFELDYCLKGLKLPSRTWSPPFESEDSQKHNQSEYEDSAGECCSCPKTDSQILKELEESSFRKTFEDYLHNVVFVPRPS
Target sequence in this assay (P06213 763-1382 partner limits assumed): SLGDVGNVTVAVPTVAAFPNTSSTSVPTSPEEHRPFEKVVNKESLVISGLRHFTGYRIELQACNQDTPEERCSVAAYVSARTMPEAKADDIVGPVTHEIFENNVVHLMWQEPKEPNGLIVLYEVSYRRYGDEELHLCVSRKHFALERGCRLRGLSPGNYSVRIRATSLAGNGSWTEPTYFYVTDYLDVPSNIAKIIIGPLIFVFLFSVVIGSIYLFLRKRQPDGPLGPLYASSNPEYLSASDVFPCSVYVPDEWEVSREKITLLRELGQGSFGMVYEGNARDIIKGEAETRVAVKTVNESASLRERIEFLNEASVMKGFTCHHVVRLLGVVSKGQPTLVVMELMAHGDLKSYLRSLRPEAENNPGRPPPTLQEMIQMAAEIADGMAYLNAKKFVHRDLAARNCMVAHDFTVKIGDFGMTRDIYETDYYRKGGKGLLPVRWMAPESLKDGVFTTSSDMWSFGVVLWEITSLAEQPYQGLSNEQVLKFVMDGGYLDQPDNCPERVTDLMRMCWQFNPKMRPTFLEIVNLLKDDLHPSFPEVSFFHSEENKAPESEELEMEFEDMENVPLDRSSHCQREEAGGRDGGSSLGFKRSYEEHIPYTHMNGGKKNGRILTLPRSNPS
Take “B(1-29)-B22K(N^ε-3-(mPEG2000-yl)propionyl)-B29A-A18Q-VGLSSGQ-A(1-21) Human Insulin [Example 2]”: the “IR binding in percent of human insulin” value amounted to 19.7%.

For the substance “B(1-29)-B1(N^α-3-(mPEG2000-yl)propionyl)-B29A-VGLSSGQ-A(1-21)-A18Q Human Insulin [Example 8]”, the “IR binding in percent of human insulin” value came to 8.1%.

“B(1-29)-B29A-VGLSSGQ-A(1-22)-A18Q-A22K(N^ε-3-(mPEG2000-yl)propionyl) Human Insulin [Example 6]”: the “IR binding in percent of human insulin” value turned out to be 12%. Same read-out and setting: the figure for “B(1-29)-B3K(N^ε-3-(mPEG2000-yl)propionyl)-B29A-VGLSSGQ-A(1-21)-A18Q Human Insulin [Example 7]” is 4.5%; for “B(1-29)-B3Q-B29R-TGLGK(N^ε-3-(mPEG2000-yl)propionyl)GQ-A(1-21)-A18Q-A21G Human Insulin [Example 1]” it is 6.8%. Regarding “B(1-29)-B29A-VK(N^ε-3-(mPEG2000-yl)propionyl)LSSGQ-A(1-21)-A18Q Human Insulin [Example 5]”, the “IR binding in percent of human insulin” value worked out at 3.2%. With “B(1-29)-B29K(N^ε-3-(mPEG2000-yl-propionyl)-VGLSSGQ-A(1-21)-A18Q Human Insulin [Example 3]”, the “IR binding in percent of human insulin” value was determined as 5.3%. For the substance “B(1-29)-B29A-VGLSSGQ-A(1-21)-A8K(N^ε-3-(mPEG2000-yl)propionyl)-A18Q Human Insulin [Example 4]”, the “IR binding in percent of human insulin” value was 4.6%.
